Reference: publication PMC9293652 (The Journal of Biological Chemistry, 2022)
Read-outs that look alike come from different tables or passages of the source.

T1: WWOX WW1 (amino acids 16-50) (human)
T1 chain: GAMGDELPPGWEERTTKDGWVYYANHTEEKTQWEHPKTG

T2: WWOX WW2 (amino acids 57-91) (human)
T2 chain: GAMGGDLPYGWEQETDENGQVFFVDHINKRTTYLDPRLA

T3: WWOX WW1-WW2 tandem domain (amino acids 16-91) (human)
T3 chain: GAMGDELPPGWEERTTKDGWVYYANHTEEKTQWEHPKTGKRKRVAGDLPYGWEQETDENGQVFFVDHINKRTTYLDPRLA


Experiments:
[1] = molecular target: WWOX WW1-WW2 tandem domain (amino acids 16-91) (human); assay: ITC
[2] = molecular target: WWOX WW1-WW2 tandem domain (amino acids 16-91) (human); assay: NMR titration
[3] = molecular target: T1, WWOX WW1 (amino acids 16-50); assay: ITC
[4] = molecular target: T2, WWOX WW2 (amino acids 57-91); assay: ITC
[5] = molecular target: T3, WWOX WW1-WW2 tandem domain (amino acids …); assay: NMR titration
[6] = molecular target: T3, WWOX WW1-WW2 tandem domain (amino acids …); assay: ITC
[7] = molecular target: T3, WWOX WW1-WW2 tandem domain (amino acids …); assay: NMR titration

Molecule | Kd [1] [µM] | KD WW1 (based on W44) [2] [µM] | KD WW2 (based on V73) [5] [µM] | Kd [6] [µM] | dH [6] [kcal/mol] | KD WW1 (based on W44) [7] [µM] | other results
ErbB4 peptide PY2 (1048-1060) | > 100 | 15 |  |  |  |  | 
ErbB4 peptide PY3 (1293-1305) | 30 | 10 |  |  |  |  | dH [1]: -12.1 kcal/mol; KD WW2 (based on V73) [2]: > 1000 µM
ErbB4 peptide PY1 (1027-1039) | > 100 | 21 |  |  |  |  | 
GTVLPPPPYRHRN [ErbB4 peptide PY3 (1293-1305)] |  |  |  |  |  |  | Kd [3]: 78 µM; dH [3]: -23 kcal/mol; Kd [4]: > 200 µM
AFNIPPPIYTSRARIDSNRSEIGHSPPPAYTPMS [ErbB4 double-motif peptide PY1PY2 (1027-1060, natural linker)] |  |  | ~1000 | 14 | -39 | 10 ± 2 | 
AFNIPPPIYTSRAGGGGGHSPPPAYTPMS [ErbB4 double-motif peptide PY1PY2S (natural linker replaced by polyglycine)] |  |  | 70 ± 20 | 21 | -29 | 2 ± 1 | 
AFNIPPPIYTSRAGGGGGTVLPPPPYRHRN [ErbB4 double-motif peptide PY1PY3 (polyglycine linker)] |  |  | 80 ± 20 | 8 | -22 | 6 ± 1 | 
GTVLPPPPYRHRNGGGGGTVLPPPPYRHRN [ErbB4 double-motif peptide PY3PY3 (polyglycine linker)] |  |  | 40 ± 20 | 3.1 | -24.9 | 0.6 ± 0.3 | Kd [3]: 50 µM; dH [3]: -39 kcal/mol
